Earlier results on three substances are cited in publication PMC4309608.

The target of data set [1] is E-cadherin (Homo sapiens) (UniProt P12830).
In another data set the target is Met (Homo sapiens) (UniProt P08581).
In data set [2] the target is TgRON2 (Toxoplasma gondii) (UniProt B6KV60).
Sequence of UniProt B6KV60 (B6KV60 25-1277): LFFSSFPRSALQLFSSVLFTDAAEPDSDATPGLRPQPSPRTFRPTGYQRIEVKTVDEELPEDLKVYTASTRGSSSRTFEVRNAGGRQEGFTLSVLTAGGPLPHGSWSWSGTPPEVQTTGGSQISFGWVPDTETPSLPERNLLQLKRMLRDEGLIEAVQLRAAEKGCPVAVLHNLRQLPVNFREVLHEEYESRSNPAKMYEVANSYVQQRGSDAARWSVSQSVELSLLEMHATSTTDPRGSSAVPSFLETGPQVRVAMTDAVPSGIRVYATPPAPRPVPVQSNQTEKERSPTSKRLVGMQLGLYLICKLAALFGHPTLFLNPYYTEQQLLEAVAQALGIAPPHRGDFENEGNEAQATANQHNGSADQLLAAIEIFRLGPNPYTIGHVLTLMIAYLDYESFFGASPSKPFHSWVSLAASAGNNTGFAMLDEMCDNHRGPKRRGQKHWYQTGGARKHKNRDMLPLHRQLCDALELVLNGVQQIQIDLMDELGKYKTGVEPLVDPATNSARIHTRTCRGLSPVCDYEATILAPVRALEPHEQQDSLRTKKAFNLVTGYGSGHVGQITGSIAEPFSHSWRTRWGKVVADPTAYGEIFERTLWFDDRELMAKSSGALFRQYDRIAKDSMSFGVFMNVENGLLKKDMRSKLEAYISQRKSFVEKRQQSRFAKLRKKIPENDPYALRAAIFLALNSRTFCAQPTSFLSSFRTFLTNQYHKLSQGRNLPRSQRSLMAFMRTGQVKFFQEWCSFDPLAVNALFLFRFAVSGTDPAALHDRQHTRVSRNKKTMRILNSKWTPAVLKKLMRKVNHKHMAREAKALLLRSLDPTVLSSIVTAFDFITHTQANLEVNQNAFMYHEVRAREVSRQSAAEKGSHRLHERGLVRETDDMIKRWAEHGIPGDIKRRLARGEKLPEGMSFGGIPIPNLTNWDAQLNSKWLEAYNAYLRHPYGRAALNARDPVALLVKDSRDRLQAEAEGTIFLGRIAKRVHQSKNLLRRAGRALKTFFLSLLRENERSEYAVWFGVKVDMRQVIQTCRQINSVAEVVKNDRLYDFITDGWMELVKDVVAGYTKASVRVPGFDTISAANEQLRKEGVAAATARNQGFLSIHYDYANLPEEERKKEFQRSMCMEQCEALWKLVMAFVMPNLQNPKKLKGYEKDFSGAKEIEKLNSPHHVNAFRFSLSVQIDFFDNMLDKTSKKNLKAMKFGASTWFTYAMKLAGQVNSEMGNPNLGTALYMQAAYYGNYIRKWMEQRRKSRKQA

Sequence of UniProt P12830 (P12830 155-709): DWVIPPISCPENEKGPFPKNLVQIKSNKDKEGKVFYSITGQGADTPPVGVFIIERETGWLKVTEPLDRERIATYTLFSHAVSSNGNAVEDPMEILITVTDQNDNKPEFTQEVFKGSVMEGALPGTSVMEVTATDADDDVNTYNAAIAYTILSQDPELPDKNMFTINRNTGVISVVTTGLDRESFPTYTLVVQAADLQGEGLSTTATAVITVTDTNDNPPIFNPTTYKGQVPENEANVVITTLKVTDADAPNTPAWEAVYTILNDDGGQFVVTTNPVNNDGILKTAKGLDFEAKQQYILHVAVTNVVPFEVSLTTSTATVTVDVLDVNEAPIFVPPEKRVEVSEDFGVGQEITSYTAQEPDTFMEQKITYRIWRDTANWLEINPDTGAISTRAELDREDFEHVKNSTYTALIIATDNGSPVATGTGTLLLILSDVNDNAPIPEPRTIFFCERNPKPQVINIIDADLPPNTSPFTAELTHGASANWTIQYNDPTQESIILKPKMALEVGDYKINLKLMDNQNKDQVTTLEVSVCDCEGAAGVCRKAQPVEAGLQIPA
Sequence of UniProt P08581 (P08581 25-932): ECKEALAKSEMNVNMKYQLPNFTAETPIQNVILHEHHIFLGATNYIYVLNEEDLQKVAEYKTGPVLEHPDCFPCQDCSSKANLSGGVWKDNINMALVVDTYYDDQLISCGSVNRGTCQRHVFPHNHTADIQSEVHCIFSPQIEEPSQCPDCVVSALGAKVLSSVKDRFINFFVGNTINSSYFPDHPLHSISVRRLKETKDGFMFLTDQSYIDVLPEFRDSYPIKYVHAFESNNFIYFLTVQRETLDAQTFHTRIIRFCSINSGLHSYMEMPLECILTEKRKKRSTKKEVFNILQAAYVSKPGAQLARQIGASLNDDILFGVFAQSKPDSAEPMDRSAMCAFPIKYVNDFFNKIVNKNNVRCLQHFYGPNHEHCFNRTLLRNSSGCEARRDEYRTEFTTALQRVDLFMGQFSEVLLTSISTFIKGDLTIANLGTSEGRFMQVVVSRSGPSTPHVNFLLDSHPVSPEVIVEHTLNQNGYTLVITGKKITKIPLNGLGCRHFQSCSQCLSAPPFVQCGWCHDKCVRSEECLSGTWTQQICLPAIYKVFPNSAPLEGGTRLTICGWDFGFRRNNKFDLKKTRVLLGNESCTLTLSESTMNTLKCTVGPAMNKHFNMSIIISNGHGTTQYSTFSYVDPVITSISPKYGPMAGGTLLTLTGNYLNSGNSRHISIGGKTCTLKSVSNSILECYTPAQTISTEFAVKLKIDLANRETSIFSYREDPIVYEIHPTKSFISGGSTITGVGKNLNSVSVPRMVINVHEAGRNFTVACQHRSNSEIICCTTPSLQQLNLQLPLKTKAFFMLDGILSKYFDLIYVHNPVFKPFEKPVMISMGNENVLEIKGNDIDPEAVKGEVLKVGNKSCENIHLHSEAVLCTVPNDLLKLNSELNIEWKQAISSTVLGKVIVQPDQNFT

As to InlA (from UniProt P0DJM0), the dissociation constant (Kd) in data set [1] was 8000 nM.

For the substance InlB (from UniProt P0DQD3), the dissociation constant Kd with Met (Homo sapiens) was 25 nM. As to TgAMA1 (from UniProt B6KAM0), in data set [2], the dissociation constant (Kd) was 15 nM.

What is called Kd is the concentration at which binding is half-saturated.
